Measured values as given in the FLAb antibody collection.

Test: patients with anti-drug antibodies; higher = more immunogenic

Protein	patients with anti-drug antibodies
unnamed (protein) chain 1: EVQLVQSGAEVKKPGESLKISCKGSGRTFTSYNMHWVRQMPGKGLEWMGAIYPLTGDTSYNQKSKLQVTISADKSISTAYLQWSSLKASDTAMYYCARSTYVGGDWQFDVWGKGTTVTVSS chain 2: EIVLTQSPGTLSLSPGERATLSCRASSSVPYIHWYQQKPGQAPRLLIYATSALASGIPDRFSGSGSGTDFTLTISRLEPEDFAVYYCQQWLSNPPTFGQGTKLEIK	1%
unnamed (protein) chain 1: EVKLVESGGGLVQPGGSLRLSCATSGFTFTDYYMNWVRQPPGKALEWLGFIGNKANGYTTEYSASVKGRFTISRDKSQSILYLQMNTLRAEDSATYYCTRDRGLRFYFDYWGQGTTLTVSS chain 2: QTVLSQSPAILSASPGEKVTMTCRASSSVTYIHWYQQKPGSSPKSWIYATSNLASGVPARFSGSGSGTSYSLTISRVEAEDAATYYCQHWSSKPPTFGGGTKLEIK	0.5%
unnamed (protein) chain 1: EVQLVESGGGLVQPGGSLRLSCAASGYTFTSYNMHWVRQAPGKGLEWVGAIYPGNGDTSYNQKFKGRFTISVDKSKNTLYLQMNSLRAEDTAVYYCARVVYYSNSYWYFDVWGQGTLVTVSS chain 2: DIQMTQSPSSLSASVGDRVTITCRASSSVSYMHWYQQKPGKAPKPLIYAPSNLASGVPSRFSGSGSGTDFTLTISSLQPEDFATYYCQQWSFNPPTFGQGTKVEIK	1%
unnamed (protein) chain 1: EVQLVESGGGLVQPGRSLRLSCAASGFTFNDYAMHWVRQAPGKGLEWVSTISWNSGSIGYADSVKGRFTISRDNAKKSLYLQMNSLRAEDTALYYCAKDIQYGNYYYGMDVWGQGTTVTVSS chain 2: EIVLTQSPATLSLSPGERATLSCRASQSVSSYLAWYQQKPGQAPRLLIYDASNRATGIPARFSGSGSGTDFTLTISSLEPEDFAVYYCQQRSNWPITFGQGTRLEIK	0%
unnamed (protein) chain 1: QLQLQESGPGLVKPSETLSLTCTVSGGSINSSSYYWGWLRQSPGKGLEWIGSFFYTGSTYYNPSLRSRLTISVDTSKNQFSLMLSSVTAADTAVYYCARQSTYYYGSGNYYGWFDRWDQGTLVTVSS chain 2: EIVLTQSPATLSLSPGERATLSCRASQSVSSYLAWYQQKPGQAPRLLIYDASNRATGIPARFSGSGSGTDFTLTISSLEPEDFAVYYCQQRSNWPPAFGQGTKVEIK	3.5%
unnamed (protein) chain 1: EVQLVESGGGLVQPGGSLRLSCAASGFNFNDYFMNWVRQAPGKGLEWVAQMRNKNYQYGTYYAESLEGRFTISRDDSKNSLYLQMNSLKTEDTAVYYCARESYYGFTSYWGQGTLVTVSS chain 2: DIQMTQSPSSLSASVGDRVTITCQASQDIGISLSWYQQKPGKAPKLLIYNANNLADGVPSRFSGSGSGTDFTLTISSLQPEDFATYYCLQHNSAPYTFGQGTKLEIK	9.8%
unnamed (protein) chain 1: EVQLVESGGGLVQPGGSLRLSCAASGYTFTSYWLHWVRQAPGKGLEWVGMIDPSNSDTRFNPNFKDRFTISADTSKNTAYLQMNSLRAEDTAVYYCATYRSYVTPLDYWGQGTLVTVSS chain 2: DIQMTQSPSSLSASVGDRVTITCKSSQSLLYTSSQKNYLAWYQQKPGKAPKLLIYWASTRESGVPSRFSGSGSGTDFTLTISSLQPEDFATYYCQQYYAYPWTFGQGTKVEIK	11.9%
unnamed (protein) chain 1: QVQLQESGPGLVRPSQTLSLTCTASGYTFTDYVIHWVKQPPGRGLEWIGYINPYDDDTTYNQKFKGRVTMLVDTSSNTAYLRLSSVTAEDTAVYYCARRGNSYDGYFDYSMDYWGSGTPVTVSS chain 2: DIQMTQSPSSLSASVGDRVTITCRASQNVGTAVAWLQQTPGKAPKLLIYSASNRYTGVPSRFSGSGSGTDYTFTISSLQPEDIATYYCQQYTNYPMYTFGQGTKVQIK	4.5%
unnamed (protein) chain 1: EVQLVQSGPGLVQPGGSVRISCAASGYTFTNYGMNWVKQAPGKGLEWMGWINTYTGESTYADSFKGRFTFSLDTSASAAYLQINSLRAEDTAVYYCARFAIKGDYWGQGTLLTVSS chain 2: DIQMTQSPSSLSASVGDRVTITCRSTKSLLHSNGITYLYWYQQKPGKAPKLLIYQMSNLASGVPSRFSSSGSGTDFTLTISSLQPEDFATYYCAQNLEIPRTFGQGTKVELK	40%
unnamed (protein) chain 1: EVQLVQSGAEVKKPGESLKISCKGSGYSFTGYNMNWVRQMPGKGLEWMGNIDPYYGGTTYNRKFKGQVTISADKSISTAYLQWSSLKASDTAMYYCARSVGPFDSWGQGTLVTVSS chain 2: EIVLTQSPATLSLSPGERATLSCRASENVYSYLAWYQQKPGQAPRLLIYFAKTLAEGIPARFSGSGSGTDFTLTISSLEPEDFAVYYCQHHSDNPWTFGQGTKVEIK	5%
